Experiment in all cases: EMSA
A general note: In EMSA bound probe runs differently from free probe, usually more slowly.

Data set [1] addresses T1, Argonaute 2 (AGO2), loaded with miR-34a (Homo sapiens, UniProt Q9UKV8 1-859).
Data set [2] concerns the target T1, Argonaute 2 (AGO2), loaded with miR-34a. This is another data set of the same source.
The target is the same in data set [3]. This is another data set of the same source.
The target is the same in data set [4]. The source holds these as a separate data set.
The target is the same in data set [5]. This is another data set of the same source.

Where two headings read alike, the source gives them in different places.

T1 sequence (Q9UKV8 whole entry): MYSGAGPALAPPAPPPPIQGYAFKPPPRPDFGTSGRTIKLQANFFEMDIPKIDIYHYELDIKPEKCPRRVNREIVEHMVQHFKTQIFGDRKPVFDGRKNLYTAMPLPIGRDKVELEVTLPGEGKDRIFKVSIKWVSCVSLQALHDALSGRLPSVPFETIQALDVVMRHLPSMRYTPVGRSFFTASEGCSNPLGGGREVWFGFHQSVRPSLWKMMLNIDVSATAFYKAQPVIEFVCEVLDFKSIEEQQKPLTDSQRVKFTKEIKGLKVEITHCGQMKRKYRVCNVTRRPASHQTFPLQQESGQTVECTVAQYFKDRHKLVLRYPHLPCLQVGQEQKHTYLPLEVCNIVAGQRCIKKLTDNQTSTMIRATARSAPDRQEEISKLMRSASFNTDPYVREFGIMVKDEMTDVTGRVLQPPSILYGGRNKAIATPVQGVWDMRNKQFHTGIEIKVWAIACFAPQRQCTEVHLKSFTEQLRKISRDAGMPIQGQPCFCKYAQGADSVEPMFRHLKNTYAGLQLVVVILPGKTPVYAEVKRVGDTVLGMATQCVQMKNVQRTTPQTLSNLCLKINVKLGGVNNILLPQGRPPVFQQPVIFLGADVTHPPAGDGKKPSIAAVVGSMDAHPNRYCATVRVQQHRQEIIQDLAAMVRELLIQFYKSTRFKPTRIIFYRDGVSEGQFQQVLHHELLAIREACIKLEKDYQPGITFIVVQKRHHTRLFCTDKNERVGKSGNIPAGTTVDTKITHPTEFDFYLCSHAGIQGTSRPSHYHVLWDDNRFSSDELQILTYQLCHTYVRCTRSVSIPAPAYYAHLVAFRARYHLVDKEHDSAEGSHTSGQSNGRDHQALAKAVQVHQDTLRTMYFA

B1: miR-34a guide / BCL2 target (dsRNA)
RNA 1: UGGCAGUGUCUUAGCUGGUUGU
RNA 2: UCGAAUCAGCUAUUUACUGCCA
modifications: 5' phosphate on guide
With B1, the affinity in data set [1], expressed as Kd, was 8.92 nM.

B2: miR-34a guide / DLL1 target (dsRNA)
RNA 1: UGGCAGUGUCUUAGCUGGUUGU
RNA 2: CCGGCCGCCUGCGGCACUGCCU
modifications: 5' phosphate on guide
In data set [1], B2 registered a Kd of 69.2 ± 14.1 nM.

B3: miR-34a guide / HNF4a target (dsRNA)
RNA 1: UGGCAGUGUCUUAGCUGGUUGU
RNA 2: AGGGCCACAUCCCACUGCCA
modifications: 5' phosphate on guide
As to B3, the dissociation constant Kd in data set [1] came to 38.9 nM.

B4: miR-34a guide / PNUTS target (dsRNA)
RNA 1: UGGCAGUGUCUUAGCUGGUUGU
RNA 2: AAAGUCACACUACAUGCACUGCCU
modifications: 5' phosphate on guide
Turning to B4, in data set [1], the affinity, expressed as Kd, was 14.5 ± 2.9 nM.

B5: miR-34a guide / WNT1 target (dsRNA)
RNA 1: UGGCAGUGUCUUAGCUGGUUGU
RNA 2: GGAGACCCCUUGUUGCACUGCCC
modifications: 5' phosphate on guide
With B5, in data set [2], the binding result is “binds”.

B6: miR-34a guide / NOTCH2 target (dsRNA)
RNA 1: UGGCAGUGUCUUAGCUGGUUGU
RNA 2: UCAGUGAUGAGGAGGACAACACUGCCU
modifications: 5' phosphate on guide
In data set [3], B6 registered an equilibrium dissociation constant (Kd) of 496 ± 129 nM.

B7: miR-34a guide / PERFECT target (dsRNA)
RNA 1: UGGCAGUGUCUUAGCUGGUUGU
RNA 2: ACAACCAGCUAAGACACUGCCA
modifications: 5' phosphate on guide
In turn, B7 returned a dissociation constant (Kd) in data set [1] of 1.03 ± 0.46 nM.

B8: miR-34a guide / SCRseed target (dsRNA)
RNA 1: UGGCAGUGUCUUAGCUGGUUGU
RNA 2: ACAACCAGCUAUCACACACGGA
modifications: 5' phosphate on guide
For B8, the binding result in data set [4] is listed as “binds”.

B9: miR-34a guide / NOTCH1 target (dsRNA)
RNA 1: UGGCAGUGUCUUAGCUGGUUGU
RNA 2: ACUUUUAUUUUACACAGAAACACUGCCU
modifications: 5' phosphate on guide
For the molecule B9, the binding result in data set [2] was “binds”.

B10: miR-34a guide / SIRT1 target (dsRNA)
RNA 1: UGGCAGUGUCUUAGCUGGUUGU
RNA 2: ACACCCAGCUAGGACCAUUACUGCCA
modifications: 5' phosphate on guide
For the molecule B10, in data set [5], the Kd was determined as 2.68 ± 0.3 nM.

B11: miR-34a guide / CDK6 target (dsRNA)
RNA 1: UGGCAGUGUCUUAGCUGGUUGU
RNA 2: UACUUUCUGCCACACACUGCCU
modifications: 5' phosphate on guide
In data set [1], B11 gave a dissociation constant (Kd) of 26.9 ± 1.4 nM.

B12: miR-34a guide / MTA2 target (dsRNA)
RNA 1: UGGCAGUGUCUUAGCUGGUUGU
RNA 2: GGUACCUGGUUGGGGGAGGGGGGCGUGCACUGCCA
modifications: 5' phosphate on guide
Regarding B12, the dissociation constant (Kd) in data set [1] was found to be 66.1 ± 11.2 nM.

Usually Kd stands for the concentration at which binding is half-saturated. High values mean a looser complex, low ones a tighter complex.

The values above are taken from publication doi:10.1101/2024.02.14.580117.
